The series concerns the molecule itself. The series is described as follows: crystal structure.

Experimental findings from article PMC2786004 (Biochemistry, 2009) are described below.

B1: Bacillus halodurans tRNA isopentenyltransferase MiaA (BH2366), full length (enzyme, UniProt Q9KAC3 1-314, looked up)
chain: MKEKLVAIVGPTAVGKTKTSVMLAKRLNGEVISGDSMQVYRGMDIGTAKITAEEMDGVPHHLIDIKDPSESFSVADFQDLATPLITEIHERGRLPFLVGGTGLYVNAVIHQFNLGDIRADEDYRHELEAFVNSYGVQALHDKLSKIDPKAAAAIHPNNYRRVIRALEIIKLTGKTVTEQARHEEETPSPYNLVMIGLTMERDVLYDRINRRVDQMVEEGLIDEAKKLYDRGIRDCQSVQAIGYKEMYDYLDGNVTLEEAIDTLKRNSRRYAKRQLTWFRNKANVTWFDMTDVDFDKKIMEIHNFIAGKLEEKSK
Regarding B1, the stoichiometry N (commonly the number of molecules, sites or subunits per partner or assembly) was 2.
